According to the supplement of paper PMC10126150:
± gives the standard deviation of the averaged measurements.

tested on: ATP; test: switch fluorescence ratio, 500 uM ATP over buffer (Cy3 cluster intensity, sum of 5 cycles each) (fold (ratio)); higher = stronger signal-on switching upon ATP binding; sequences stand for … in TCGTCGGCAGCGTCAGATGTGTATAAGAGACAGTTTTTTTTTTTTTTTTTTTTTTTTT…TC; details: aptamer strand: ATP DNA aptamer (quencher-CACCTGGGGGAGTATTGCGGAGGAAGG + anchor), 100 nM annealed; ATP concentration: 500 uM
Outline: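 Imaging in selection buffer was followed by imaging after 15 min with 500 uM ATP at 22 °C, for Cy3-labelled switching-strand clusters annealed to 100 nM quencher-labelled ATP aptamer on a modified Illumina MiSeq flow-cell. Five of these buffer/ATP cycles ran, separated by NaOH stripping and re-annealing. The fluorescence ratio per cluster is summed target-cycle over summed buffer-cycle Cy3 intensity, averaged per switch-domain sequence; clusters outside 100-1000 RFU were removed.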
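Also: ATP exposure 15 min at 22 °C before imaging.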

| Sequence | switch fluorescence ratio |
| --- | --- |
| GAAATACGCT | 1.08 ± 0.022 |
| GCATTAAGAT | 1.02 ± 0.025 |
| GGGTTTTTCG | 0.994 ± 0.062 |
| CTAGCCTGCT | 0.994 ± 0.038 |
| GTTTGGGTAG | 1.02 ± 0.034 |
| TTACTCTTCT | 0.972 ± 0.04 |
| CGGGGGAAAA | 1.03 ± 0.054 |
| AGGGTTGCAT | 0.9863 ± 0.0025 |
| AACGACAATT | 1.118 ± 0.0016 |
| GCGATGGCTG | 0.957 ± 0.015 |
| GAATATATGT | 1.04 ± 0.028 |
| TTTTAGTGCT | 1.006 ± 0.0065 |
| GGGCCCTGGT | 1.01 ± 0.013 |
| GCTTCAGAGT | 1 ± 0.02 |
| TTTAATGGGA | 1.03 ± 0.05 |
| AATGGAGGGA | 0.974 ± 0.011 |
| ATTAGTAGTT | 0.996 ± 0.057 |
| AACCAGAAAT | 0.992 ± 0.01 |
| ATTAGCTTCC | 3 ± 0.33 |
| TAAATTAGCT | 1.02 ± 0.037 |
| GGAGGAGTGT | 0.959 ± 0.037 |
| AAAAAAATGG | 1.01 ± 0.041 |
| AATCGTATAG | 0.9817 ± 0.0042 |
| GTTTAATTGC | 0.995 ± 0.049 |
| TATGGGTTTT | 1.02 ± 0.037 |

| Sequence | switch fluorescence ratio |
| --- | --- |
| GTCGTATGAG | 1.01 ± 0.028 |
| CGGGGCTGCT | 1.01 ± 0.018 |
| TTAGGGGCGA | 0.994 ± 0.012 |
| TTTGACTTTA | 1.003 ± 0.0029 |
| ATGACGAAGC | 1.57 ± 0.13 |
| TTATATGTTG | 1.02 ± 0.026 |
| AATCAGTTTG | 1.022 ± 0.0094 |
| AATCAGCATT | 1.08 ± 0.076 |
| TTTGCCGCGT | 1.03 ± 0.012 |
| TAACGGTATA | 1.11 ± 0.058 |
| TTTTTAATCA | 0.987 ± 0.014 |
| TAGGGGGCAT | 1.01 ± 0.043 |
| TAGCAATTTG | 1.05 ± 0.053 |
| GGGGTATATG | 0.995 ± 0.027 |
| CCGGTGGATT | 1.21 ± 0.3 |
| TCGTTTTGCC | 0.956 ± 0.02 |
| ACTTAAAATT | 0.996 ± 0.044 |
| TCTGGTTAAA | 0.982 ± 0.013 |
| ATGTCGTGTC | 1 ± 0.013 |
| GATGGGGAGG | 0.98 ± 0.032 |
| TTGGAAATGG | 1.03 ± 0.045 |
| TTTATTCTAA | 0.976 ± 0.02 |
| GAAGCATAAT | 1.27 ± 0.12 |
| ATCGGGGGA | 1.02 ± 0.051 |
| TTATATTGTT | 0.984 ± 0.017 |

| Sequence | switch fluorescence ratio |
| --- | --- |
| GAGTAAGATT | 1.02 ± 0.025 |
| GTTTTTGACA | 0.989 ± 0.015 |
| GCATGGGTAG | 0.982 ± 0.018 |
| ATTCGGGATG | 0.979 ± 0.017 |
| GTGTTTTATT | 1.01 ± 0.036 |
| CGGGGGACAG | 1.03 ± 0.066 |
| AGAGGGGTTG | 0.972 ± 0.016 |
| ATGTGTTGTG | 0.98 ± 0.021 |
| AGTACGGTGC | 1.02 ± 0.017 |
| GACTCCAGGC | 1.22 ± 0.069 |
| ACGGTCAGTC | 1.05 ± 0.077 |
| AATTCGGGCG | 1.02 ± 0.071 |
| AAAATTCAGG | 1.02 ± 0.011 |
| AAAGATTTCG | 0.971 ± 0.027 |
| ATGAAGGGTG | 1.04 ± 0.036 |
| GGAAACTGGT | 1.05 ± 0.069 |
| ATAAAATTTA | 1.04 ± 0.03 |
| TATTTGGGGA | 0.999 ± 0.024 |
| GGGATGTGTT | 0.9635 ± 0.0069 |
| TCCAAGTCCC | 1.018 ± 0.0088 |
| CAGCATCATC | 1.242 ± 0.011 |
| TGGGCGCCGT | 0.957 ± 0.017 |
| TTTTTCTTCT | 1.31 ± 0.36 |
| TTGGGCGTTT | 1 ± 0.043 |
| AAGCTAATTT | 1.01 ± 0.011 |

| Sequence | switch fluorescence ratio |
| --- | --- |
| AAGGTTGCGC | 0.986 ± 0.026 |
| ACGACCTGCA | 1.51 ± 0.075 |
| GCGATTGGCT | 1.06 ± 0.018 |
| ACCGAGGAGG | 0.961 ± 0.026 |
| AAAGGTAAGG | 0.965 ± 0.016 |
| CGGGAAAGTT | 1.02 ± 0.04 |
| CAATCAGGAC | 1.06 ± 0.041 |
| TTCAAATTGG | 1 ± 0.043 |
| TGGTTACACG | 1.06 ± 0.046 |
| GAGAAAATCG | 1 ± 0.043 |
| AGCTTATGGT | 0.962 ± 0.049 |
| ATTTGAGGAT | 0.972 ± 0.027 |
| TATAATGGCG | 0.961 ± 0.04 |
| TTAGGGACAG | 0.987 ± 0.027 |
| TAGTTTTGGA | 0.988 ± 0.01 |
| TCGATTTGGT | 0.9749 ± 0.008 |
| TACGAGCCGC | 0.989 ± 0.057 |
| ATGGCCGGGT | 1.01 ± 0.013 |
| ACTTTGGTTA | 1.04 ± 0.042 |
| TACTTGAGTA | 1.0026 ± 0.00022 |
| ATCGCGAGGA | 1.026 ± 0.0025 |
| ACTTCTGGAG | 2.15 ± 0.028 |
| ATAAACGACT | 1.06 ± 0.024 |
| TTGGGGGGG | 1.02 ± 0.035 |
| ATACGGAGGC | 1.03 ± 0.1 |
